Test results reported in patent US10723806B2, “Method of introducing nucleic acid into plant cells” (RIKEN, priority 2012, dated 2020).
Ends that are not written are not given here.

Columns and labels:
[1] = test system: Nicotiana benthamiana leaf; assay: In-vivo transfection of tobacco leaf with RLuc-encoding pDNA complex, Renilla luciferase assay; details: for RLuc expression (relative photometric unit/protein weight): peptide alone as carrier of pDNA, N/P ratio 0.5, 12 hours, benthamiana tobacco leaf; for transfection efficiency (RLuc assay) compared to complexes having other N/P ratios: N/P ratio 0.5, tobacco leaf; for incubation time showing the highest transfection efficiency: tobacco leaf, sampled 12 to 144 hours
Description: In-vivo transfection experiment using the tobacco leaf was performed to evaluate an ability of a carrier peptide-pDNA complex to deliver a gene into plant cells through a cell wall. Complexes of pDNA encoding RLuc and GFP serving as a reporter gene with R9-BP 100 and (KH)9-BP100 were directly allowed to permeate into Nicotiana benthamiana leaf. To determine the most efficient N/P ratio of a pDNA complex in the range of 0.1 to 20, a transfection efficiency is quantitatively characterized by use of RLuc assay.
A target plant was prepared as follows. Seeds of benthamiana tobacco were germinated in a pot containing a culture medium, which is a mixture of a soil (Pro-Mix) and vermiculite in a ratio of 2:1. The benthamiana tobacco plant was grown up to three weeks in a plant incubator (Biotron NK System) under constant light irradiation for 24 hours at a temperature of 29° C.
Leaves of benthamiana tobacco were sufficiently spread and directly impregnated with a solution (about 100 μL) of a complex comprising pDNA encoding green fluorescence protein (GFP) and Renilla luciferase (RLuc) by use of a syringe without a needle. The benthamiana tobacco plants thus treated were incubated in a plant incubator separately at a temperature of 29° C. and 21° C. under constant light irradiation for 16 hours per day until 6 days. To quantitatively evaluate RLuc gene expression, Renilla luciferase assay (Promega) was performed in accordance with the protocol provided by a manufacturer (n=4).
To be described in brief, sampling of the leaf impregnated was performed periodically in the range of 12 hours to 144 hours by cutting a square (1 cm^2) around an impregnated section. The samples each were lysed by use of Renilla Luciferase Assay Lysis Buffer (Promega). The lysate was briefly centrifuged and the supernatant was mixed with Renilla Luciferase Assay Substrate and Renilla Luciferase Assay Buffer (Promega). Gene expression was evaluated by a multi-mode microplate reader (Spectra MAX M3, Molecular Devices Corporation) based on the intensity (relative photometric unit) of photoluminescence. The amount of protein in the supernatant was determined by BCA protein assay (Pierce Biotechnology) to obtain a relative photometric unit/protein weight (RLU/mg). A transformant with RLuc gene-encoding pDNA via Agrobacterium (Agrobacterium) was used as a positive control in the experiment.
The statistical difference in transfection efficiency was determined by independent t-test using bilateral distribution. It was regarded that a statistically-significant difference is present at p<0.05. The data obtained in a cell survivability experiment are shown as an average±a standard deviation (n=4).

[2] = test system: pDNA; assay: Gel retardation assay (agarose gel electrophoresis) of carrier peptide-pDNA complexes; type: physicochemical; details: pDNA complex
Description: (§1) Solutions containing complexes each were diluted with ultra-pure water (MilliQ) up to a final volume of 800 μL and subjected to measurement of zeta potential and size. The zeta potential and zeta shift of the solution samples were measured three times by a zeta potential meter and averages of data were obtained by use of Zetasizer software ver 6.20 (Malvern Instruments Ltd). Dynamic light scattering (DLS) was performed to determine hydrodynamic diameters. Subsequently, polydispersion indexes (PDI) were determined by use of a zeta nanosizer (Zetasizer software ver 6.20) using He—Ne laser (633 nm) at 25° C. and a backscattering detection angle of 173°. Observation by an AFM was performed by fixing a complex solution on cut mica and using a silicon cantilever in air at room temperature in a tapping mode at a spring constant of 1.3 N/m. A cantilever tip rotation effect was obtained by calculation and true dimensions of complexes were obtained by the method previously reported (K. Numata, Y. Kikkawa, T. Tsuge et al., Macromol Biosci 6 (1), 41, 2006; K. Numata, T. Hirota, Y. Kikkawa et al., Biomacromolecules 5 (6), 2186, 2004). For gel retardation assay, each sample (40 μL) containing 1.0 μg of pDNA was mixed with a loading buffer, analyzed on a 1% agarose gel (TAE buffer, 100 V, 30 minutes) and stained with ethidium bromide.

[3] = Dynamic light scattering (DLS) size and PDI of carrier peptide-pDNA complexes; type: physicochemical; details: complex with pDNA
Description: Ionic complexes of carrier peptides (R9-BP100 and (KH)9-BP100) different in N/P ratio and pDNA encoding a reporter gene were prepared and characterized by use of dynamic light scattering (DLS), an atomic force microscope (AFM), a zeta potential meter and agarose gel electrophoresis. The N/P ratio herein refers to the ratio of the number of amine groups from the carrier peptide and the number of phosphate groups from pDNA.
(§2) Two types of pDNA, i.e., green fluorescence protein (GFP)-encoding P35S-GFP (S65T)-TNOS and Renilla luciferase (RLuc)-encoding P35S-RLuc-TNOS, were used as reporter genes. All pDNA molecules were amplified in a competent DH5α E. coli (Takara) and purified by an Endofree Plasmid Giga Kit (Qiagen). To prepare a carrier peptide-pDNA complex, a carrier peptide (0.5 g/L) was mixed with a pDNA solution (about 1.0 mg/mL) so as to have different N/P ratios (0.5, 1, 2, 5, 10 and 20) at 25° C. Immediately after mixing, complexes were characterized by a zeta potential meter (Zetasizer Nano-ZS, Malvern Instruments Ltd) and an atomic force microscope (Seiko Instruments).
as §1

[4] = test system: Arabidopsis thaliana L.; assay: Introduction of giant DNA (80 kbp luciferase plasmid) into Arabidopsis thaliana L.; type: in vivo; details: complex with 80 kbp luciferase plasmid, twelve hours after introduction
Description: A plasmid (80 kbp) encoding luciferase was prepared by use of Bacillus subtilis and introduced into Arabidopsis thaliana L. by use of a carrier peptide ((KH)9-BP100). Twelve hours after introduction of the complex, luciferase was extracted from the leaf and subjected to quantitative analysis.

[5] = Zeta potential of carrier peptide-pDNA complexes; type: physicochemical; details: pDNA complex
Description: as §2, §1

[6] = test system: mitochondria of leaf of Arabidopsis thaliana L.; assay: Organelle selective gene introduction, Renilla luciferase expression in mitochondria of Arabidopsis thaliana L. leaf; type: in vivo; details: complex with pDONRcox2p: rluc/gfp
Description: A carrier peptide comprising a mitochondrial transit sequence (Cytochrome c oxidase subunit IV (yeast)) and a polycationic sequence was synthesized. In other words, ([…]) (SEQ ID NO: 43) was synthesized by the solid phase peptide synthesis. The mitochondrial transit sequence is represented by MLSLRQSIRFFK (SEQ ID NO: 44) and the polycationic sequence is represented by KHKHKHKHKHKHKHKHKH) (SEQ ID NO: 22). Then, a complex was prepared from the carrier peptide synthesized and a plasmid vector (pDONRcox2p: rluc/gfp) that can function in mitochondria. In the same manner as in the above Examples, the complex was introduced into a leaf of Arabidopsis thaliana L. and expression of a reporter gene (Renilla Luciferase) in the mitochondria was quantitatively evaluated. Using a promoter (cox) which specifically functions in mitochondria, whether the complex was specifically introduced into the mitochondria was determined.

[7] = N/P ratio within the range of 2 to 20

Substance | RLuc expression (relative photometric unit/protein weight) [1] [RLU/mg] | PDI ([3]; N/P ratio 0.5) | Size (average hydrodynamic diameter, DLS) ([3]; N/P ratio 0.5) [nm] | PDI ([3]; N/P ratio 1) | Size (average hydrodynamic diameter, DLS) ([3]; N/P ratio 1) [nm] | PDI ([3]; N/P ratio 2) | Size (average hydrodynamic diameter, DLS) ([3]; N/P ratio 2) [nm] | PDI ([3]; N/P ratio 5) | Size (average hydrodynamic diameter, DLS) ([3]; N/P ratio 5) [nm] | PDI ([3]; N/P ratio 10) | Size (average hydrodynamic diameter, DLS) ([3]; N/P ratio 10) [nm] | PDI ([3]; N/P ratio 20) | Size (average hydrodynamic diameter, DLS) ([3]; N/P ratio 20) [nm] | transfection efficiency (RLuc assay) compared to complexes having other N/P ratios ([1]; pDNA complex) | incubation time showing the highest transfection efficiency ([1]; pDNA complex) [h] | zeta potential ([5]; N/P ratio of 0.5 and 1) | zeta potential [5, 7] | further results
KHKHKHKHKHKHKHKHKH [(KH)9, reference compound] | 340±60 |  |  |  |  |  |  |  |  |  |  |  |  |  |  |  |  | 
KHKHKHKHKHKHKHKHKHKKLFKKILKYL-NH2 [(KH)9-BP100, tested as ionic complex with pDNA] |  | 0.31 | 291 | 0.30 | 322 | 0.23 | 139 | 0.23 | 106 | 0.23 | 96 | 0.24 | 114 | highest transfection efficiency | 12 | negative values | positive values | mobility of pDNA in agarose gel electrophoresis ([2]; N/P ratio up to 10): a small amount of pDNA migrated; luciferase activity in leaf [4]: efficient luciferase activity was confirmed
KKLFKKILKYL [BP100, cell-penetrating peptide alone, synthesized for controls, reference compound] | 120±70 |  |  |  |  |  |  |  |  |  |  |  |  |  |  |  |  | 
MLSLRQSIRFFKKHKHKHKHKHKHKHKHKH [SEQ ID NO: 43] |  |  |  |  |  |  |  |  |  |  |  |  |  |  |  |  |  | gene introduction efficiency to mitochondria (Rluc) among N/P=0.5, 1 and 2 [6]: a highly significant difference was shown
RRRRRRRRRKKLFKKILKYL-NH2 [R9-BP100, tested as ionic complex with pDNA] |  | 0.34 | 319 | 0.38 | 321 | 0.21 | 151 | 0.21 | 127 | 0.23 | 114 | 0.25 | 116 | highest transfection efficiency | 12 | negative values | positive values | mobility of pDNA in agarose gel electrophoresis ([2]; N/P ratio of 0.5 to 2): the same mobility as that of a free pDNA; mobility of pDNA in agarose gel electrophoresis ([2]; N/P ratio of 10 and 20): no mobility was observed; time-dependent transfection behavior ([1]; pDNA complex, compared to (KH)9-BP100): quick and short transfection behavior
